US20220073922

How the values were obtained:
[1] = target: T1, Angiopoietin-2 (Ang2) (Homo sapiens) (UniProt O15123); assay: flow; details: 2'-F all nucleotides
T1 sequence: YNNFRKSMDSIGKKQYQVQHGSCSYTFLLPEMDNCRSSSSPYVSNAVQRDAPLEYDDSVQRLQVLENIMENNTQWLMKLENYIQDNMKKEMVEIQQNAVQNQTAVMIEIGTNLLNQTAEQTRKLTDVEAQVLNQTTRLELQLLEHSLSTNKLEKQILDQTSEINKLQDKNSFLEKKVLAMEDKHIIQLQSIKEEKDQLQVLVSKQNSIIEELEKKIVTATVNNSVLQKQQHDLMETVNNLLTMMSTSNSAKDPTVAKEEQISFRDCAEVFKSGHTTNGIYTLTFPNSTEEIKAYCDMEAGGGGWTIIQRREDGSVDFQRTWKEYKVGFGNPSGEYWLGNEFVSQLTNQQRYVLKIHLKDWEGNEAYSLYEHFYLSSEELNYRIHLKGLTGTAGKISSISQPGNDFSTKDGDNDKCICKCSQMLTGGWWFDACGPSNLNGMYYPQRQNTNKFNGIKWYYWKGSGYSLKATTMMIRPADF

[2] = target: T2, VEGF-121 (VEGFA isoform 121) (Homo sapiens) (UniProt P15692); assay: flow; details: 2'-F all nucleotides
T2 sequence: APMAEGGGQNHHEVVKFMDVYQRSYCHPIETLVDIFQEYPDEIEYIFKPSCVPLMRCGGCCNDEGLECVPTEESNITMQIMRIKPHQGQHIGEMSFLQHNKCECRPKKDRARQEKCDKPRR

[3] = test system: T3, VEGF (isoform not given) (Homo sapiens), P15692-9; assay: competition; details: 2'-F all positions; blocks VEGF-VEGFR2; isoform not stated
T3 sequence: T2 sequence

[4] = 1 hexaethylene glycol linker between aptamers [2'-F at all nucleotides 1-86, 1 hexaethylene glycol linker (H) between 38 and 39 left out]
[5] = 2 hexaethylene glycol linkers between aptamers [2'-F at all nucleotides 1-86, 2 hexaethylene glycol linkers (HH) between 38 and 39 left out]
[6] = 3 hexaethylene glycol linkers between aptamers [2'-F at all nucleotides 1-86, 3 hexaethylene glycol linkers (HHH) between 38 and 39 left out]
[7] = 4 hexaethylene glycol linkers between aptamers [2'-F at all nucleotides 1-86, 4 hexaethylene glycol linkers (HHHH) between 38 and 39 left out]
[8] = 5 hexaethylene glycol linkers between aptamers [2'-F at all nucleotides 1-86, 5 hexaethylene glycol linkers (HHHHH) between 38 and 39 left out]
[9] = 6 hexaethylene glycol linkers between aptamers [2'-F at all nucleotides 1-86, 6 hexaethylene glycol linkers (HHHHHH) between 38 and 39 left out]

## CGCAUAGAUAAGCCAACAAACAUUCUCUGUUAGUAUUUUCUGCG [AMS0525.8]
[1]; one internal hexaethylene glycol linker (H) [2'-F at 1-44, hexaethylene glycol linker H (left out) between C21 and A22], PBSMCT, 37 C
  Kd: 0.085 nM

## CGCAUAGAUAAGCCAACAAAUUCUCUGUUAGUAUUUUCUGCG [AMS0525.7]
[1]; one internal hexaethylene glycol linker (H) [2'-F at 1-42, hexaethylene glycol linker H (left out) between A20 and U21], PBSMCT, 37 C
  Kd: 0.093 nM

## CGCUAGAUGGCUAACACUAUUGUGGAGAUGCACUAGCGCGCAUAGAUAAGCCAACAAACGUACAUUCUCUGUUAGUAUUUUCUGCG [AMSB103.1]
[1]; [4]
  Kd: 0.026 nM
[2]; [4]
  Kd: 0.041 nM

## CGCUAGAUGGCUAACACUAUUGUGGAGAUGCACUAGCGCGCAUAGAUAAGCCAACAAACGUACAUUCUCUGUUAGUAUUUUCUGCG [AMSB103.2]
[1]; [5]
  Kd: 0.034 nM
[2]; [5]
  Kd: 0.038 nM

## CGCUAGAUGGCUAACACUAUUGUGGAGAUGCACUAGCGCGCAUAGAUAAGCCAACAAACGUACAUUCUCUGUUAGUAUUUUCUGCG [AMSB103.3]
[1]; [6]
  Kd: 0.031 nM
[2]; [6]
  Kd: 0.036 nM

## CGCUAGAUGGCUAACACUAUUGUGGAGAUGCACUAGCGCGCAUAGAUAAGCCAACAAACGUACAUUCUCUGUUAGUAUUUUCUGCG [AMSB103.4]
[1]; [7]
  Kd: 0.032 nM
[2]; [7]
  Kd: 0.041 nM

## CGCUAGAUGGCUAACACUAUUGUGGAGAUGCACUAGCGCGCAUAGAUAAGCCAACAAACGUACAUUCUCUGUUAGUAUUUUCUGCG [AMSB103.5]
[1]; [8]
  Kd: 0.027 nM
[2]; [8]
  Kd: 0.038 nM

## CGCUAGAUGGCUAACACUAUUGUGGAGAUGCACUAGCGCGCAUAGAUAAGCCAACAAACGUACAUUCUCUGUUAGUAUUUUCUGCG [AMSB103.6]
[1]; [9]
  Kd: 0.034 nM
[2]; [9]
  Kd: 0.039 nM

## CGCUAGAUGGCUAACACUAUUGUGGAGAUGCACUAGCGCGCAUAGAUAAGCCAACAAACGUACAUUCUCUGUUAGUAUUUUCUGCG [AMSB103]
[3]
  IC50: < 0.1 nM
